Measured values taken from publication PMC5673899, “Structural basis for receptor recognition of pollen tube attraction peptides” (Nature Communications, 2017).
Numbering of substitutions follows the chain as printed. Names and notes keep the numbering of the source. “Also recorded” adds a separate entry of the source.

Legend:
[1] = target: T1, AtPRK6^LRR N239A (residues 1-262) (Arabidopsis thaliana, UniProt Q3E991 27-262, N239A); assay: pull-down; His-tagged LRR protein mixed with excess AtLURE1.2 peptide and held on Ni-NTA resin, on ice 30 min; washed five times with 25 mM Tris pH 8.0, 150 mM NaCl, 15 mM imidazole; eluted with 250 mM imidazole; SDS-PAGE, Coomassie; settings: both partners purified
T1 construct: signal peptide in the construct; PRK6 of Arabidopsis thaliana, extracellular LRR domain, residues 1-262, with N239A; also called N239A mutant of PRK6; source: High Five insect cells (baculovirus), secreted, purified as AtPRK6^LRR; not shown: His6, C-terminal, kept
T1 sequence (looked up): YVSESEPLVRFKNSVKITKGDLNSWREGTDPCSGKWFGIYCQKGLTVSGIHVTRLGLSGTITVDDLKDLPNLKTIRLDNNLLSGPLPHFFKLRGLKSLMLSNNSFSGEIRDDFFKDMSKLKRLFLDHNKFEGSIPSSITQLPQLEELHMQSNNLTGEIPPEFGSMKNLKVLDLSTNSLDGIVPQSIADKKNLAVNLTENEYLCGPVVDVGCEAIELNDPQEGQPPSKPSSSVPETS

[2] = target: T2, AtPRK6^LRR, extracellular LRR domain of AtPRK6 (residues 1-262) (Arabidopsis thaliana, UniProt Q3E991 27-262); assay: ITC
T2 chain: T1 sequence (looked up) with A213N

[3] = target: T3, AtPRK6^LRR, extracellular LRR domain of AtPRK6 (residues 1-262) (Arabidopsis thaliana, UniProt Q3E991 27-262); assay: ITC; ITC200, 25 °C, 200 mM HEPES pH 7.0, 100 mM NaCl; about 0.9 mM AtLURE1.2 injected (20 x 2 μl) into 0.08 mM LRR protein in the cell; settings: both partners purified
T3 construct: signal peptide in the construct; leucine-rich repeat receptor kinase PRK6 of Arabidopsis thaliana, extracellular LRR domain, residues 1-262; Monomer by gel filtration; likely glycosylated (apparent 34 kDa); source: High Five insect cells (baculovirus), secreted, purified (Ni-NTA, size-exclusion chromatography); also co-expressed with AtLURE1 peptides; not shown: His6, C-terminal, kept
T3 sequence (looked up): T1 sequence (looked up) with A213N

[4] = test system: semi-in-vivo pollen tubes; assay: Gelatin-beads assay, wild-type semi-in-vivo pollen tubes; type: cell-based, Arabidopsis; settings: for pollen tube attraction activity (in words): Tukey−Kramer test, P < 0.05
Description: (§1) Attraction activities of mutant AtLURE1.2 peptides were examined for semi-in-vivo pollen tubes growing through cut, pollinated pistils by gelatin-beads assay and wavy assay, [20]. For the gelatin-beads assay, pollen tubes were grown on solid pollen germination medium poured into a mold made with 1-mm thick silicone rubber and cover glasses. After hand-pollination, the topside cover glass was removed and the medium was covered with hydrated silicone oil (KF-96–100CS; Shin-Etsu). Attraction of pollen tubes toward the peptide was evaluated using AtLURE1 peptide containing gelatine beads under an inverted microscope (IX71, Olympus) equipped with a micro-manipulator (Narishige). For the AtLURE1-responsive wavy assay, the purified AtLURE1.2 peptide was added to solid pollen germination medium, which was melted at 70 °C and then cooled to a certain degree. The mixture was mixed by vortexing and poured into the mold. Pollen tubes of each genotype were grown through cut styles, as mentioned above. Each peptide (25 μM in 10 mM Bis-Tris (pH 6.0) and 100 mM NaCl) was diluted to 250 nM by cultivation medium in both assays. To examine reactivity of PRK6 mutants to AtLURE1.2, constructs for PRK6 mutants, D234A, N239A, and ΔN239I240, were generated by site-directed mutagenesis from a wild-type PRK6 vector, pPZP221-pPRK6::PRK6-mRuby2 (ref. [20]). Wild-type and mutant PRK6 constructs were introduced into prk6–1 plant. After transformants were selected by the same criteria as previously, beads assay and wavy assay were performed in several T1 lines and single T2 line, respectively, for each genotype using 250 nM wild-type AtLURE1.2 peptide.

[5] = test system: AtPRK6^LRR; assay: In vitro pull-down with AtPRK6^LRR; type: binding, Arabidopsis thaliana
Text: The genes of AtPRK3 ^LRR (residues 1–241), AtPRK4 ^LRR (residues 1–277), AtPRK5 ^LRR (residues 1–279), AtPRK6 ^LRR (residues 1–262), MIK1 ^LRR (residues 1–633), MIK2 ^LRR (residues 1–707) were amplified from Arabidopsis cDNA library by PCR and cloned into pFastBac-1 vector with a C-terminal 6 × His-tag. Their identities were confirmed by sequencing. The mature form of AtLURE1.1 (residues 20–94), AtLURE1.2 (residues 20–90), AtLURE1.3 (residues 21–91), and AtLURE1.4 (residues 20–90) were cloned into pFastBac-1 vector, with a modified N-terminal hemolin signal peptide and 6 × His-SUMO tag. Point mutation constructs were generated by QuickChange Site-Directed Mutagenesis Kit (Strategene). All the proteins were expressed using the Bac-to-Bac baculovirus expression system (Invitrogen) in High Five cells at 22 °C. One liter of High Five cells (2.0 × 10^6 cells mL^−1) cultured in the medium from Expression Systems was infected with 25 ml recombinant baculovirus and the media was collected after 72 h of infection. Secreted LRR proteins were purified using Ni-NTA (Novagen) and size-exclusion chromatography (Hiload 200, GE Healthcare) in buffer containing 10 mM Bis-Tris pH 6.0 and 100 mM NaCl. The His-SUMO tag of the AtLURE proteins was removed by Prescission Protease at 4 °C overnight in buffer containing 25 mM Tris pH 8.0 and 150 mM NaCl. All AtLURE proteins were further cleaned by size-exclusion chromatography (Hiload 200, GE Healthcare). For co-expression of AtPRK6^LRR and AtLURE1, one liter of High Five cells were co-infected with 20 and 30 ml recombinant baculovirus of AtPRK6^LRR and AtLURE1, respectively. Secreted AtPRK6^LRR-AtLURE1 complexes were processed with Prescission Protease digestion and then purified as described above. Expression and purification procedures of all the mutants were essentially the same as those of AtPRK6^LRR and AtLURE1.2.
The purified His-tagged ectodomains of AtPRK proteins and MIK1, 2 were used to pull-down the AtLURE1.2 peptide. […] All the eluted samples were analyzed by SDS-PAGE and visualized by Coomassie blue staining. […]

[6] = test system: semi-in-vivo pollen tubes (wild type); assay: AtLURE-responsive wavy assay, wild-type pollen tubes; type: cell-based, Arabidopsis; settings: 250 nM peptide in solid pollen germination medium
Description: as §1, with “To examine reactivity of PRK6 mutants to AtLURE1.2, constructs for PRK6 mutants, D234A, N239A, and ΔN239I240, were generated by site-directed mutagenesis from a wild-type PRK6 vector, pPZP221-pPRK6::PRK6-mRuby2 (ref. [20]). Wild-type and mutant PRK6 constructs were introduced into prk6–1 plant. After transformants were selected by the same criteria as previously, beads assay and wavy assay were performed in several T1 lines and single T2 line, respectively, for each genotype using 250 nM wild-type AtLURE1.2 peptide.” left out
pollen tubes. Fluorescence is from mRuby2 fused to the C-terminal of PRK6 receptors, showing that all of mutant PRK6 receptors localize normally to the plasma membrane of the pollen tube tip. […]

[7] = target: T3, AtPRK6^LRR, extracellular LRR domain of …; assay: pull-down; His-tagged LRR protein mixed with excess AtLURE1.2 peptide and held on Ni-NTA resin, on ice 30 min; washed five times with 25 mM Tris pH 8.0, 150 mM NaCl, 15 mM imidazole; eluted with 250 mM imidazole; SDS-PAGE, Coomassie; settings: both partners purified
[8] = gelatin beads containing 250 nM peptide

B1: AtLURE1.2, mature form (residues 20-90) (peptide, UniProt Q4VP08 20-90, looked up)
chain: TLINGSSDEERTYSFSPTTSPFDPRSLNQELKIGRIGYCFDCARACMRRGKYIRTCSFERKLCRCSISDIK
notes: AtLURE1.2, defensin-like cysteine-rich peptide of Arabidopsis thaliana, mature form, residues 20-90; Cloned in pFastBac-1 behind a modified N-terminal hemolin signal peptide and a 6xHis-SUMO tag; Likely glycosylated (apparent 14 kDa); also called AtLURE1.2 peptide; source: also co-expressed with AtPRK6^LRR for the crystallised complex; not shown: His6, N-terminal, cleaved; SUMO, N-terminal, …
[1]
  binding result: binds
[2]
  Ka: 321000 M⁻¹
[3]
  Kd: ~3.1 µM

B2: R73A: R73A mutant AtLURE1.2 peptide (protein, UniProt Q4VP08 20-90, looked up, variant R73A)
Protein LURE 1.2: B1 chain with R54A
[4]; [8]
  pollen tube attraction activity (in words): little effect

B3: R79A: R79A mutant AtLURE1.2 peptide (protein, UniProt Q4VP08 20-90, looked up, variant R79A)
Protein LURE 1.2: B1 chain with R60A
[4]; [8]
  pollen tube attraction activity (in words): little effect

B4: R83A: R83A AtLURE1.2 peptide, Arg83 substituted with alanine (protein)
chain: B1 chain with R64A
modifications: left off: His6, N-terminal, cleaved | SUMO, N-terminal, cleaved
notes: R83A AtLURE1.2 peptide, Arg83 substituted with alanine
[4]; [8]
  pollen tube attraction activity (in words): significantly lower than those in other four peptides
[4]; gelatin beads containing 250 nM peptide, mean ± SD, 9–16 pollen tubes per assay, 3−5 assays
  attraction frequency of pollen tubes: 56 ± 11%
[4]; gelatin beads, 250 nM peptide
  pollen tubes not attracted to the bead: more than 44%
[5]; Ni-NTA, excess AtLURE1.2, on ice 30 min, washed five times, 25 mM Tris pH 8.0, 150 mM NaCl, SDS-PAGE, Coomassie blue, repeated at least three times
  interaction in pull-down assay: compromised but not abolished; also recorded: compromised
[5]; once or twice washing, peer review file
  interaction in pull-down assay, less harsh washing: much less than the wild type AtLURE1.2
[6]
  wavy pollen tube response: decreased; also recorded: greatly reduced the numbers of wavy pollen tubes

B5: R68A: R68A mutant AtLURE1.2 peptide (protein, UniProt Q4VP08 20-90, looked up, variant R68A)
Protein LURE 1.2: B1 chain with R49A
[4]; [8]
  pollen tube attraction activity (in words): little effect

B6: AtLURE1.2 R83A (residues 20-90) (peptide, UniProt Q4VP08 20-90, looked up)
chain: B1 chain with R64A
notes: AtLURE1.2 of Arabidopsis thaliana, mature form, residues 20-90, with R83A; also called R83A AtLURE1.2; mutant peptide R83A; source: High Five insect cells (baculovirus), secreted, purified as AtLURE1.2; not shown: His6, N-terminal, cleaved; SUMO, N-terminal, cleaved
[7]
  binding result: binds
